In patent publication US20160237154A1 (SORRENTO THERAPEUTICS, published 2016):

How the values were obtained:
mouse CTLA4/His = biological target: T1, mouse CTLA4/His (mouse, UniProt P09793 36-162, limits assumed); assay: ELISA, CTLA4/His captured on Ni-NTA plate, antibody ~1 ug/mL, anti-human Fc-HRP
T1 construct: also called murine CTLA4; not shown: His tag
Protocol: Using a 96-well Ni-NTA plate recombinant human CTLA4/His, cynomolgus CTLA4/His or mouse CTLA4/His @ 1 μg/mL were captured. The plate was incubated for 30 min at room temperature, washed 3 times with PBS-Tween (PBST), then anti-CTLA4 antibodies (˜1 μg/mL) diluted in casein were added and incubated for 30 min with shaking. The plate was washed 3 times with PBST, horseradish peroxidase (HRP)-conjugated goat anti-human Fc (1:500 in casein) was added, then 3,3′,5,5′-Tetramethylbenzidine (TMB) was added as substrate and developed about 5 min. 2M H₂SO₄ was used to stop the reaction and the OD was read at 450 nm.

[1] = biological target: T2, Recombinant human CTLA4/His (human, UniProt P16410 36-162, limits assumed); assay: SPR (BiaCore), antibody captured on anti-human Fc, His-tagged analyte, 1:1 model
T2 construct: not shown: His tag
T2 sequence (looked up): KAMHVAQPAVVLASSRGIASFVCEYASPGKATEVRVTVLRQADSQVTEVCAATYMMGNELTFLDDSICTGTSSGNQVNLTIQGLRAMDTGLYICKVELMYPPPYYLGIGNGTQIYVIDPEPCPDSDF
Protocol: The affinity of antibody CT1E1 for human CTLA4 was also determined using surface plasmon resonance (BiaCore). Anti-human Fc antibody (GE, BR-1008-39) was immobilized on CM5 sensor chip to approximately 1000 RU using standard NHS/EDC coupling methodology. Antibodies (about 10 μg/ml) were captured for 60 s at a flow rate 10 ul/min Recombinant human […] was serially diluted in running buffer (HBS-EP). All measurements were conducted in HBS-EP buffer with a flow rate of 30 μL/min. The antibody was diluted appropriately to obtain a series of concentrations. A 1:1 (Langmuir) binding model was used to fit the data. The Chi2 (chi-squared) value was used as a guideline for fitting quality. Results from the affinity studies are provided below in Table 2.

[2] = biological target: T3, recombinant human CTLA4 (as human Fc fusion) (human, UniProt P16410 37-162, limits assumed); assay: blocking ELISA: serially diluted IgG pre-mixed with recombinant human CTLA4-Fc, transferred to a Ni-NTA plate coated with His-tagged human CD80 (the blocked ligand); HRP anti-human Fc, OD 450
T3 construct: not shown: human Fc
T3 sequence (looked up): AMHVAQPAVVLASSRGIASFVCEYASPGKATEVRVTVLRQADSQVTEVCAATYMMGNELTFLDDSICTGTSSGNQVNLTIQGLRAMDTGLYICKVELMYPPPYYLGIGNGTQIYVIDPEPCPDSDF
Protocol: (§1) Assays were performed to determine the ability of antibody CT1E1 to inhibit CD80 and CD86 activity. A 96-well Ni-NTA plate was coated with 1 μg/mL recombinant human CD80 or CD86 with hexahistidine tag at room temperature for 1 h. Pre-mixed 30 μL serial 3-fold diluted IgGs (started from 25 μg/mL) and 30 μL of […] recombinant human CTLA4 (as human Fc fusion) and incubated the mixtures for 30 minutes, then washed the plate with PBS-Tween (PBST) 3 times. The mixtures were transferred 50 μL to the ELISA plate and incubated 30 min with shaking. The plate was washed 3 times with PBST, then horseradish peroxidase (HRP)-conjugated goat anti-human Fc (1:500 in casein) was added, then 3,3′,5,5′-Tetramethylbenzidine (TMB) was added as substrate and developed 30 min. 2M H₂SO₄ was used to stop the reaction and the OD was read at 450 nm.

[3] = biological target: T3, recombinant human CTLA4 (as human Fc …); assay: blocking ELISA: serially diluted IgG pre-mixed with recombinant human CTLA4-Fc, transferred to a Ni-NTA plate coated with His-tagged human CD86 (the blocked ligand); HRP anti-human Fc, OD 450
Protocol: as §1

B1: CT1E1 (antibody, V domains shown)
VH: EVQLVESGGGLVQPGRSLRLSCRGSNFNFDDLAISWVRQAPGKGLEWLGFVRSKAYGETTDYVASVKGRFTISRDDSKFIAWLQMDSLKTDDTAVYYCTTFNYWGQGTLVTVSS
VL: QPVLTQPPSVSVAPGKTARISCGGNNIASEAVHWYQKKPGQAPVLVIYYDSDRPSGIPERFSGSNSGNTATLRISRVDAGDEADYYCQVWDRTTDQPVFGGGTKLTVL
notes: also called human anti-CTLA4 antibody CT1E1
binding result (mouse CTLA4/His): binds
Kd [1]: 1.81 nM
koff [1]: 0.000242 s⁻¹
kon [1]: 133000 M⁻¹ s⁻¹
IC50 [2]: 0.313 nM
IC50 [3]: 0.329 nM
